Data reported in PMC4211736.
Several values for one entry are separate records, joined by “and”; a condition that tells them apart may be missing. Identical values can stand only once. Blank lines part the entries; values can stand above or below the substance they belong to.

Assays:
G29K/A30K(3xK)-APP695wt = test: SDS-PAGE and Western blot (SDS-stable dimer); CHO cells lysed in RIPA buffer (0.1% SDS); 3-8% Tris-Acetate gel; blot probed with anti-APP C-terminal antibody A8717
recombinant 3xK-C100Flag = test: SDS-PAGE, Coomassie stain and Western blot (SDS-stable multimers); recombinant protein run on 4-12% Bis-Tris gels; monomer, dimer and trimer bands cut out, eluted in 150 mM sodium citrate pH 6.8 and rerun; Coomassie stain and blot (6E10, Ab5)
recombinant WT-C100Flag = test: as above

recombinant WT-C100Flag, sequence (P05067 18-701): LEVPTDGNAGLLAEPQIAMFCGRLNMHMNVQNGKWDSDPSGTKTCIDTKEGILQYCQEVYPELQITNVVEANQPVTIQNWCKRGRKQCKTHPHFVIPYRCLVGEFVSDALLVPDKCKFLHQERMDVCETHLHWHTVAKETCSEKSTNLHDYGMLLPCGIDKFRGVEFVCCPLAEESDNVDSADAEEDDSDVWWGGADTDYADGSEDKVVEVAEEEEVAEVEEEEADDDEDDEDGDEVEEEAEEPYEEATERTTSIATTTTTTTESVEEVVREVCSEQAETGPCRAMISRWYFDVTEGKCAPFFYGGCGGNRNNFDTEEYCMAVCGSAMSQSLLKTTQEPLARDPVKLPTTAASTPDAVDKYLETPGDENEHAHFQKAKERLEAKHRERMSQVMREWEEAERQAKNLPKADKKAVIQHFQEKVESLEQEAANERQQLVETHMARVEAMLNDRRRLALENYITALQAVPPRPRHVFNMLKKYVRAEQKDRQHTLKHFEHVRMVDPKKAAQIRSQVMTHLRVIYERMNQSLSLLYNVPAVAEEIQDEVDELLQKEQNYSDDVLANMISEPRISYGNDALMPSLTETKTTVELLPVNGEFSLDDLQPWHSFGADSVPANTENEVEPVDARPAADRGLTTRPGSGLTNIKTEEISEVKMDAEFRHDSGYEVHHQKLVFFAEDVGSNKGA

- stoichiometry N (G29K/A30K(3xK)-APP695wt): 2
Substance: G29K/A30K(3xK)-APP695wt (natural protein)

- stoichiometry N (recombinant 3xK-C100Flag): 2 and 3
Substance: recombinant 3xK-C100Flag (domain or fragment)

- stoichiometry N (recombinant WT-C100Flag): 2 and 3
Substance: recombinant WT-C100Flag (domain or fragment)
